Assay results from patent US20090130760A1 (ST MARIANNA UNIVERSITY SCHOOL OF MEDICINE, published 2009).

Target: T1, GST (UniProt P08515 1-218 = GST)
T1 construct: Control of the GST pull-down
Experiment: GST pull-down on glutathione-agarose beads, SDS-PAGE and Sypro Ruby stain
Experimental: The proteins bound to the beads were separated by SDS-PAGE and stained with Sypro Ruby.
Four micrograms of the GST fusion protein was mixed with 4 μg of His-BARD1¹⁴⁻¹⁸⁹ and 25 μl of glutathione-agarose beads in 1 ml of a buffer containing 50 mM Tris-HCl (pH 7.5), 0.5% NP-40, 150 mM NaCl, 50 mM NaF and 1 mM dithiothreitol. After rotation at 4° C. for 2 hours, GST fusion proteins bound to glutathione-agarose beads were washed three times and subsequently eluted with SDS-PAGE loading buffer.

T1 sequence (P08515 whole entry): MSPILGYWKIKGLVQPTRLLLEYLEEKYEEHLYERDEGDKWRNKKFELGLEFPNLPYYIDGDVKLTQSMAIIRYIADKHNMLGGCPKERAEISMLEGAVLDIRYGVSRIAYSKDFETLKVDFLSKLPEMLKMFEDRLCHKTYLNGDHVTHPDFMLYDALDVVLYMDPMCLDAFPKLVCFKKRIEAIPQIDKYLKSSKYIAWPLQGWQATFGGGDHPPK

B1: His-BARD1^14-189 (other)
chain: IRSGNEPRSAPAMEPDGRGAWAHSRAALDRLEKLLRCSRCTNILREPVCLGGCEHIFCSNCVSDCIGTGCPVCYTPAWIQDLKINRQLDSMIQLCSKLRNLLHDNELSDLKEDKPRKSLFNDAGNKKNSIKMWFSPRSKKVRYVVSKASVQTQPAIKKDASAQQDSYEFVSPSPPA
notes: Bacterially expressed recombinant protein; not shown: His tag
- binding result: no binding (tested: 4 µg of each protein in 1 ml)
